System: MS2 coat protein
Experiment: apparent KD of MS2 coat protein; higher = weaker reporter binding
Details: Eterna round: R107
How it was run: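 Apparent KD was obtained for each design as the median of normalised binding-curve fits over its clusters. RNA switches transcribed on-chip from Illumina sequencing clusters were titrated with SNAP-549-labelled MS2 coat protein (twofold steps, 0.7 or 1.5 nM to 3 µM) in 100 mM Tris-HCl pH 7.5, 80 mM KCl, 4 mM MgCl2, without or with constant ligand.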

[1] = input ligand: theophylline 20 uM
[2] = input ligand: tryptophan 2.4 mM
[3] = input ligand: theophylline 2 mM

Sequence | apparent KD of MS2 coat protein (input ligand: arginine 13.2 mM) | apparent KD of MS2 coat protein [1] | apparent KD of MS2 coat protein [2] | apparent KD of MS2 coat protein [3] | apparent KD of MS2 coat protein (input ligand: none)
CCGGCGCGAUUAUGGGUUUGCUUUUACGAUACCAGCCGCGUUCCGGGCCCUUGGCAGCGUGUAACAUGAGGAUCACCCAUGUUCA [theeternabot_exclusion_MS2_Theo_A_37] | 0.00981 µM | 0.0207 µM | 0.0101 µM |  | 
CCAUUGAUGACGGCCGCCACUGUCUACAUGAGGAUCACCCAUGUAUAGCAGGGUGGACCUAUGGACAGGACCGGGUCACUUGUCC [Tryp B Ex t7] | 0.0104 µM | 0.0137 µM |  | 0.0124 µM | 
UCGCUCUGGGUGAGAUCCGGAGAUAUGGAAGGAGCGCUGAUUCCAGCAGGUAGGUCGCCAACGGACAUGAGGAUCACCCAUGUAC [Same State - Arginine A (Freestyle 11)] | 0.0366 µM | 0.0604 µM | 0.0431 µM | 0.0555 µM | 0.0469 µM
GUUAUUAGAAAACUAAUAACAGUGGGUGAACGAGGACCGGUACGGCCGCCACUCGGACAUGAGGAUCACCCAUGUCCAUGUGAAA [AstrosExyTryA#4] | 0.0121 µM | 0.0158 µM |  | 0.0165 µM | 
AAACAUGAGGAUCACCCAUGUCCUCCUGUCCGAGGACCGGUACGGCCGCCACUCGGUUCUCGGGAGGAUGGUCAAAGACUAUCCA [Omei Trp A SS B v9] | 0.12 µM | 0.327 µM |  | 0.332 µM | 
GGUUACUCUACGGCCGCCACUGGGCAUGUAAAUAACAUGAGGAUCACCCAUGUGGAUUAAUAUUACAGGACCGGGUAGUGUAACC [Tryptophan B 23] | 0.126 µM | 0.253 µM | 0.0251 µM | 0.384 µM | 0.279 µM
AUAACAUGAGGAUCACCCAUGUUGAGUGAUACCAGACCAUGUAGUGUCCCUUGGCAGCACAGGUAAAGUUGUAAAUAACGAUAGA [#13 SameState-TheophyllineA] | 0.0386 µM | 0.0647 µM | 0.0597 µM | 0.0228 µM | 0.0539 µM
CCCAAUUAGAUCUUUGGAAUUUUACUCGAAGGAGCGUCAUAGUAGGCAGGUAGGUCGCGAGACAUGAGGAUCACCCAUGUAGAGA [btbmullin] | 0.033 µM | 0.0508 µM | 0.033 µM | 0.0385 µM | 0.0409 µM
AGCUCGCAUCCUCUAGCGUCAAAGACGCCUCGAGGACCGGUACGGCCGCCACUCGAGAUGAGGAUCACCCAUCUCAAAGCGAGCA [TrypAX 14 #SwitchBubble #AlternativeMS2 #MS2Late #CuTurnoff] | 0.0716 µM | 0.197 µM | 0.156 µM | 0.254 µM | 
GGAUAGGACAGAAGGAGCGACGUGAGGCGAAAGCCAAUCCUUCAACAUGAGGAUCACCCAUGUCAGGUAGGUCGCUGUCCUAUCG [ArgBX 5] | 0.0195 µM | 0.0264 µM | 0.0225 µM | 0.0223 µM | 0.0209 µM
GGCUAUACUACGGCCGCCACUGAACAUGAGGAUCACCCAUGUAAUGUUCAGAUUUUUUUUUUUUACAGGACCGGGUAGAAUUGCC [Tryptophan B 3] | 0.0826 µM | 0.22 µM |  | 0.299 µM | 
ACAUGAGGAUCACCCAUGUUCCUCGCCGAUACCAGUGAAGAAUUACGCCCUUGGCAGCGGAAAGAGUGUUUUGGAGAUGAGGUAC [6.aA] | 0.0805 µM | 0.112 µM | 0.1 µM |  | 
UUGGGUUUGCGAAGGAGCGGGUAUGUUUUCUAGUGGAUCCUAACAUGAGGAUCACCCAUGUCCCAGGUAGGUCGCGCGGGUUUGG [12.V] | 0.0891 µM | 0.23 µM | 0.148 µM | 0.224 µM | 0.122 µM
CGUCGAAACUGAAGGAGCGAGAUGACAACAUUGGGUCUAACAUGAGGAUCACCCAUGUAAUCUCAGGUAGGUCGCGGUGUCAACA [Exclusion Arginine B GF18] | 0.0537 µM | 0.0863 µM | 0.0639 µM | 0.12 µM | 0.0646 µM
UGUAACAUGAGGAUCACCCAUGUGAGUGAUACCAGACUAGUGUUAGUCCCUUGGCAGCACGCUGGACGAAUGUGUAGUCUAUGCG [Same State - Theophylline A (Freestyle 19)] | 0.0558 µM | 0.108 µM | 0.0639 µM | 0.0583 µM | 0.078 µM
UGUACCAUGUCGGCCGCCACUCAUGAUAAACAAGAGGAUCACCCUUGUAGCGUCAAAGACGCUAUGAGGACCGGGACAUGGUACU [TryBS Zipper 2] | 0.0295 µM | 0.0412 µM | 0.0155 µM | 0.0439 µM | 0.0297 µM
CACAAUUUGUCGGCCGCCACUAAGGUAACUUUUCUCACAUGAGGAUCACCCAUGUGCCCGAAACUUAGGACCGGGAUAAUGGGUG [Usteraor] | 0.0359 µM | 0.146 µM |  | 0.183 µM | 
AUUUUUCUAUCAGAUACCAGACAAUUUUAGACAUGAGGAUCACCCAUGUAUAGGGUGUUCGUCCCUUGGCAGCUGUUAAGUUUAA [JR_SSTheophyB_Sub004] | 0.062 µM | 0.152 µM | 0.182 µM |  | 
AAUUAUCAGUCGGCCGCCACUGACACAUGAGGAUCACCCAUGUAACUUGGGUUAAAUUUAAUAAACAGGACCGGGACAAAGGCUA [JR_ExcTryptoB_Sub010] | 0.0944 µM | 0.189 µM |  | 0.192 µM | 

Sequence | apparent KD of MS2 coat protein (input ligand: arginine 13.2 mM) | apparent KD of MS2 coat protein [1] | apparent KD of MS2 coat protein [2] | apparent KD of MS2 coat protein [3] | apparent KD of MS2 coat protein (input ligand: none)
AAUUUUAACGGAAGGAGCGUCACGUAAUUCAUACAUGAGGAUCACCCAUGUUAGUUGUAGAGACAGGUAGGUCGCCGUUAUUUGA [JR_AAArginiB_Sub025] | 0.0157 µM | 0.0209 µM | 0.017 µM | 0.0171 µM | 0.0157 µM
CACGAAAGAUCGGCCGCCACUAUUUGAUGUGUUCUUUCACAUGAGGAUCACCCAUGUUCUUAUUUUAGGACCGGGAUUGAGCGUG [ETB #2] | 0.0727 µM | 0.142 µM |  | 0.145 µM | 
GGGCGCGUGGACCGGCGUGCUCCGCUCCGUCGAGGACCGGUACGGCCGCCACUCGACAUGAGGAUCACCCAUGUGUGAGCUCGCG [#1 Exclusion - Tryptophan A Attempt #16 (HarryS)] | 0.0225 µM | 0.0636 µM |  | 0.08 µM | 
AUAUAUACAUGAGGAUCACCCAUGUUAUUUCGAGGACCGGUACGGCCGCCACUCGAUAGAGUAGAAGUAACAUGUGUUAGUUGAU [JR_SSTryptoA_Sub014] | 0.0163 µM | 0.0328 µM |  | 0.0391 µM | 
CUUAUAGUAACUGAUACCAGUGUACUGACAUGAGGAUCACCCAUGUUGGGUUUUGUUGUACACCCUUGGCAGCAGAAUCUAUAAG [AstrosExyTheB#10] | 0.0492 µM | 0.0657 µM | 0.0588 µM |  | 
GCACCAGGUACGGAUACCAGCUGCCCGAGAUACAUGAGGAUCACCCAUGUGACCUGAUUUAGCCCUUGGCAGCUGUACCUGGUGC [SSThB NP+V+V2 #1] | 0.148 µM | 0.189 µM | 0.285 µM | 0.0559 µM | 0.333 µM
UUUGUAAUUGUCUGGUAGAUUUAUUUAUUUCGAGGACCGGUACGGCCGCCACUCGUUAAUUACAUGAGGAUCACCCAUGUUAGCU [JR_ExcTryptoA_Sub008] | 0.0141 µM | 0.0171 µM |  | 0.015 µM | 
ACAUGAGGAUCACCCAUGUAAUCCUCUGAAGGAGCGAGAAAUAACUCAGGUAGGUCGCAGUUCAAAACAUGAGGAUCACCCAUGU [Exclusion Arginine A GF 9] | 0.0289 µM | 0.0526 µM | 0.0511 µM | 0.0462 µM | 0.0433 µM
AGUUACAUGAGGAUCACCCAUGUCCGGUUGCGAGGACCGGUACGGCCGCCACUCGGGUACAUCCCAGAAAAUACUGAAUGCCUGC [theeternabot_sameState_MS2_Trp_A_15] | 0.0418 µM | 0.0664 µM |  | 0.0845 µM | 
AUUAUCAUGGUCAUAUAUAUUUCGUCAGAUACCAGACUAGAUAUAGUCCCUUGGCAGCUGUUACAUGAGGAUCACCCAUGUUAUA [JR_ExcTheophyA_Sub016] | 0.055 µM | 0.0768 µM | 0.0933 µM |  | 
UAUACAUGAGGAUCACCCAUGUGCCAUGAUACCAGACAUGAAAAUGUCCCUUGGCAGCAUGGUGAUUGUAUAGCGGGAAACCCGA [Utechov] | 0.0813 µM | 0.261 µM | 0.138 µM |  | 
ACGGAUCGGAAACGAUCCGCGGCAAGGGUACGAGGACCGGUACGGCCGCCACUCGGCUAACAUGAGGAUCACCCAUGUCCGAAGA [ETA NP+V+V2 #8] | 0.0419 µM | 0.0597 µM | 0.0722 µM | 0.0722 µM | 0.0607 µM
CACAUGAGGAUCACCCAUGUCUGAACUGAAGGAGCGCUAAACAAGGCAGGUAGGUCGCGGAAUCUUGUGUGCAUAUGCACACGGG [9.S] | 0.0184 µM | 0.0274 µM | 0.0199 µM | 0.0227 µM | 0.0182 µM
UAUAUAGAUGGAAGUUCUAUAGAUGCAGAAGGAGCGUAGGAAACUACAGGUAGGUCGCUGAGGUACAUGAGGAUCACCCAUGUAG [SSArg A #20 Slice of Pi] | 0.0143 µM | 0.0405 µM | 0.0225 µM | 0.0264 µM | 0.0264 µM
AGUAUCAGUGGAAGGAGCGUCGCGAAUGUCACAUGAGGAUCACCCAUGUCGUCUUGAGCGCGACAGGUAGGUCGCCACGGUAGGC [SS-ArgB4] | 0.0121 µM | 0.0159 µM | 0.0135 µM | 0.0145 µM | 0.0101 µM
AUAAAUGGGUUAAUUAGUUUUAGGUCCAGUCGAGGACCGGUACGGCCGCCACUCGUCCCAAGUUACAUGAGGAUCACCCAUGUUA [JR_ExcTryptoA_Sub014] | 0.0338 µM | 0.0525 µM |  | 0.0919 µM | 
UUAAUUAUAUAUUAUUUAAUAUUUACAGAAGGAGCGUGAUAAAACACAGGUAGGUCGCUGAAGGGAACAUGAGGAUCACCCAUGU [AstrosSSArgA#20] | 0.0286 µM | 0.0416 µM | 0.0389 µM | 0.0601 µM | 0.0289 µM
GUAUACAUGAGGAUCACCCAUGUGCCAGAAGGAGCGCUGGAAACGGCAGGUAGGUCGCUGGUAGGUCCUCUAUCUAGACGUUCGG [#17 Exclusion - Arginine A] | 0.0526 µM | 0.188 µM | 0.0603 µM | 0.188 µM | 0.0975 µM
UCAGUGCAGGGAAGGAGCGGGUACAUGAGGAUCACCCAUGUGCAAGUGGUGAGCGUCCGUGCCCAGGUAGGUCGCCCAGCCUGGU [Atarteedon] | 0.0692 µM | 0.235 µM | 0.108 µM | 0.198 µM | 0.121 µM

— the supplement of paper PMC9170038
